Among the data in paper PMC8709873 are fold increase in binding against WT values, retold here.

This experiment concerns the target myc-tagged LRRTM2 (UniProt O43300). The experiment is described as follows: immunostaining of cells or tissue; concentrated conditioned media with Fc proteins (~1 μg/ml) added to CHO cells expressing myc-LRRTM + GFP, on ice 30 min, washed, fixed; Fc detected with Cy3 anti-human IgG, ratio Fc MGV/LRRTM MGV, normalized to control-Fc.
UniProt O43300, sequence (O43300 34-516): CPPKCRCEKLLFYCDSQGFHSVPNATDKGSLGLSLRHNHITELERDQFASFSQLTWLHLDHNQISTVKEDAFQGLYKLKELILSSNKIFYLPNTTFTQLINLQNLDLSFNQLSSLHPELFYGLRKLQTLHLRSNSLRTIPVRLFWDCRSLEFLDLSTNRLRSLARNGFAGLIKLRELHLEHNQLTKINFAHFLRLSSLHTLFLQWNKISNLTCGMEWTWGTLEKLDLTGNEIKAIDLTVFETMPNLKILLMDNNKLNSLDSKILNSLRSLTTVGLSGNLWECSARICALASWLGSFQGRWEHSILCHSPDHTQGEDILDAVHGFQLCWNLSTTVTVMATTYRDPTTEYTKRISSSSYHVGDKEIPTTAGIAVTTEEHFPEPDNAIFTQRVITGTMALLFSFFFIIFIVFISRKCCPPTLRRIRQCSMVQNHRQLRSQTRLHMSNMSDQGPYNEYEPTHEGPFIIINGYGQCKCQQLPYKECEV

Turning to P469S HA-Nrxn1α-ecto-Fc (Fc fusion), the fold increase in binding against WT was determined as 2 fold.
